Substrate in this data set: OC[C@H]1O[C@@H](O[C@H]2[C@H](O)[C@@H](O)C(O)O[C@@H]2CO)[C@H](O)[C@@H](O)[C@H]1O
Nature of the data set: Determination of KM with lactose as substrate. Format: biochemical, Paenibacillus wynnii. Particulars: 8 °C. As for the experimental part: For the substrate solution 400 mM lactose was dissolved in Novo buffer (the composition of which is depicted in Table 4). The beta-galactosidase activity was determined in a thermo shaker in 1.5 mL reaction tubes at 8°C. The enzyme mix and the lactose solution were preincubated at 8 °C for 12 min. To start the enzymatic reaction 100 µL of the enzyme mix were added to 100 µL lactose solution. The reaction was carried out for 5 min at 8 °C. The reaction was stopped by adding 300 µL 1 M HClO4 to the enzyme-substrate-mix. The mix was kept on ice for 5 min before it was centrifuged at 13 000 rcf and 4 °C for 5 min. 160 µL of the supernatant were transferred to 75 µL 2 M KOH to neutralise the solution. The neutralisation step was checked using pH paper and the pH was adjusted if necessary. The solution was kept on ice for another 5 min before it was centrifuged at 13 000 rcf at 4 °C for 5 min. All assays were performed in triplicate. Table 4: Composition of Novo buffer
The kinetic parameters were determined using the natural substrate lactose. The reaction matrices and conditions were chosen in order to simulate conditions in milk systems. The chosen reaction matrices were Novo buffer (cf. Table 4, above) and milk diluted with Novo buffer. The reaction temperature was 8 °C and the pH value was 6.7.
For the determination of the KM values of P. wynnii beta-galactosidase lactose concentrations ranged from 0.76 mM to 97.5 mM. In order to obtain different lactose concentrations in milk, milk was diluted with Novo buffer. […] The enzyme activities were measured under initial reaction velocity conditions of the enzyme. The reaction times for the initial velocity of the enzymes were determined in previous experiments. The kinetic parameter KM was analysed using the Enzyme Kinetics Module in SigmaPlot 12.5 (Systat Software, Inc., San Jose, USA).
In the case of the studies in Novo buffer the enzyme activity decreased again with increasing lactose concentration. […] Table 6: Summary of the determined KM values using the Enzyme Kinetics Module in SigmaPlot 12.5. […]

B1: P. wynnii beta-galactosidase (SEQ ID NO: 1) (Paenibacillus wynnii) (protein)
chain: MRKKLVYSPPTNGYPEWNNNPECFQINRMDAHATWIPFNTTEDALLGDPQSSPNYLSLNGMWKFAYAETPDQRIRNFFEKNYDCSSWAELNVPSHWQMHGYDYPQYTNVRYPWSEREPELKPPFAPTQYNPVGSYVRTFSVPEDWSGKPVFISFQGVESAFYVWLNGELVGYSEDTFTPAEFDLTPYLIPGDNKLAVEVYRWCDASWLEDQDFWRLSGIFRDVYLYTTPEAHIYDFFVRTELDEQYRHAELQLDVKLMDYFERTAEAVIVHAQLYDHDQNAIFDQPLSQTVYFNSASTQTLQFSSSIIDPLKWSAEHPNLYTLVLSLHHVDGELMEAVSCRVGFRTFELKDGLMKINGKRIVFKGVNRHEFSCDTGRSIDVDDMVRDILLMKAHNINAVRTSHYPNQTIWYDLCDQYGLYVIDETNLETHGSWSYGQTDLGGNTVPGSRPEWRANVLDRCNSMLQRDKNHPSIVIWSLGNESFGGDNFVAMHDFLKKEDPSRLVHYEGLFHYRESDVASDIESTMYISPADVEQYALNDPKKPYILCEYSHAMGNSCGGLHLYWEVFEKYDILQGAFIWDWIDQAIRLKQADGSMHMAYGGDFGESPHDGNFCGNGLIFADRSVSPKLYEVKKCYQNVKFEAVDLERGIYRVTNQNLFTDLAEYALAWEVSCNGNPVLKGTVDLAVPAGESAEISVPVVDEPNLQSEGEHVLTFSLQLKKSTLWADAGHEVAWEQFLLPTPQFMAGQDQDSVLTSDRGVIVEEQAGRLTVQAADVSLQFSTSSGYLISMQNKGKELLLEPVRPNFWRAVTDNDLGNKHHERCAVWNTAGAGCTLASFESHKNVDGVTVRAKYTVPTVPISSLILEYRIQENGSIEVFEELSPGMGLPEIPEIGLMFIVEDRLDTVSWYGRGPHENYWDRKTGARLGYFSGSVQDQFVPYIRPQECGNKTDVRFASITGGINGSGFRVDGDPVLELNALPWTPAELEANDHIYKLPASNKTVVRVNYKQMGVGGDNSWGATTHPEFTLPADQTYGFRFTIRMV
The Km is the concentration of substrate that gives half-maximal velocity. As to B1, the Km was 340 ± 84 µM (other: Novo buffer, pH 6.7, A: evaluation according to Michaelis-Menten, pH 6.7); 520 ± 89 µM (other: Novo buffer, pH 6.7, B: evaluation under consideration of substrate inhibition, pH 6.7); 630 µM (other: milk + Novo buffer).
